Data taken from a protein production outcome set (Wang et al. 2014).

Test: label from the status in PepcDB records

| Sequence | protein production |
| --- | --- |
| SLENAGSRPFLADFNGFSYLELKGLHTFERDLGEKMALEMVFLARGPSGLLLYNGQKTDGKGDFVSLALHNRHLEFRYDLGKGAAIIRSKEPIALGTWVRVFLERNGRKGALQVGDGPRVLGESPVPHTMLNLKEPLYVGGAPDFSKLARGAAVASGFDGAIQLVSLRGHQLLTQEHVLRAVDVAPFAG | not failed |
| MSVQKAVKSSHYEAESNMEQDIVRKAWVFKPSGLNFIWGGDSRYWVIPNEDRTPAELKKVSWLEVTGSYDKIEPGKTYRIGFKISFTADATGWDQAPVFMSAKIGKKGRTIWKRIKSVNNNFDKLKGGTGPVNIPDETDGRFEIFVSPKVAINQDTKLQFGLYEVWTGKWKTGLLIYEAFVEEV | failed |
| MPNGPTCAARRARARSALVGGEGFRMEWSGKRVSDGSATRPTVAAWVSGGFGSGESVAAFKALATEAEAGDASAQRRLGLCFRDGLGTDRDIHRAKAWYQRSAAQNDPMAALELGLMLESGLGISSDHGEAGKWYRVALDLWRDRAEGGDALGQFVLGLCHEVGAGVPAAHREALKWYGRSAERGCAHAQWALGRLHEDGLGVVRDYSEAVRCYRAAAFQGHARACFNLGLMAELGLGMVRDADCSASWYGKALEVWRRWAELGDPAAATALAAMYEAGHGVAKDYAVAVCWYRRAARQGNPLAQFELGRLSMEGRGVERNDVEAVGWFRLAAERGHADAQFHLGLMHEHGRGVTRRFEEAFRWYDKAADEGPARRWDAFHRLVPAAGEVPEGCGLGAW | failed |
| MTKISKAACIGGGVIGGGWIARFLLAGIDVDVFDPHPEAGRIVGEIIANAEKAYAMLTGAPLPPRGKLTFCETLAEAVADADWIQESVPERLDLKRGVLTEIDAAARPEALIGSSTSGLLPTDLQRNMTHPERLFVAHPYNPVYLLPLVEIVGGEKTSAGTIRAAIERLAPIGMKGVHIAKEIEAFVGDRLLEALWREALWLIHDDICTVETLDDVIRYSFGLRWAQMGLFQTYRIAGGEAGMRHFLAQFGPCLAWPWTKLTDVVDLDDALIEKIGRQSDEQAAGLSIRALERIRDENLVGILQALKGGDNGKGWGAGKLLKDFEQTLWARGGDAAASADPSKPLRLVETKVSPAWVDYNGHMTEHRYLQVFGDTSDALLRLIGVDLAYVEAGHSYYTVESHIRHLGEAKLGQAIHSACQILTADEKRLHVFHTLRDTATGAVIATAEQMLLHVDSKEGKAVAAPAAVLDRVKAIAAAHAELALPEGAGRHVGQRR | failed |
| MDVTGKSLKRILLSLAVFCILITGPGIACAEEATTQEKEILFSDYFKSMMDMAQDKYKGEITEKQMLEGALKGIFSTMDSYTVYYTVEESQDFFTDINGSYTGIGVVMSEVDGKIVIDKVYPSSPAEEAGIKKGDVIAQVDGKSVENLSLEEVAGLIKGPSGTKVVIGVLRNGTDGVIELEVTRRQIIINPVTHKIEGDIGYIKLESFNSNASKAMEEALKQMDKNNIKKIILDLRDNPGGDVGQAVSIARKFVKKGLITKLDFKSESQKDEEYYSYLEELKYKLVVLVNENSASASEILAGAIQDTGSGILVGTTTFGKGKVQNLYPILTPEAVEKYRKETGETFVNGYDLLEKHGIYPSDEEIIGWVKITTGEYYTPNGRMIDGVGLEPDVYVENEPEGKYKILEGVEKLRKVTKPSLNAQSEDVLNAEKILSALGYDVDTPDNLMDEKTVKAVAEFQRDCGLYSYGVLDFATQQALNDKLDELLLVKNRDKQYEKAVELLEN | failed |
| MGLLFFHNDVTDRFNPFIHQQDVYVQIDRDGRHLSPGGTEYTLDGYNASGKKEEVTFFAGKELRKNAYLKVKAKGKYVETWEEVKFEDMPDSVQSKLKLEHHHHHH | not failed |
| MEEHNANPLRFETNPYHNIVIKDRKVMELTGVKQIDSFDANEFLLETAQGWLMIQGKDLKLGKLDTERGDVIINGIIEALSYVSNKKGTAKETMMSKLFR | failed |
| MQSRLSKILRSSVVGVAVLALLAGCSNNADDTDADSTSTGNSAFPVSIEHEFGTTTIDDVPERVVTLGVTDADIVLALGTVPVGNTGYKFFENGLGPWTDELVEGKELTLLDSDSTPDLEQVAALEPDLIIGVSAGFDDVVYEQLSDIAPVVARPAGTAAYAVAREEATNLVARAMGQSEKGQELNEETDALIQAARDENPSFDGKTGTVILPYQGKYGAYLPGDARGQFLDSLGISLPEAVLSRDTGDSFFVDVPAESVKDVDGDVLLVLSNDENLDITAENPLFETLNVVQKDAVIVATTEERGAITYNSVLSVPFALEHLAPRIAEALK | failed |
| MKNLFLTSSFKDVVPLFTEFESNLQGKTVTFIPTASTVEEVTFYVEAGKKALESLGLLVEELDIATESLGEITTKLRKNDFIYVTGGNTFFLLQELKRTGADKLILEEIAAGKLYIGESAGAVITSPNIAYIQTMDSTKKAVNLTNYDALNLVDFSTLPHYNNTPFKEITQKIVTEYAGKSQIYPISNHEAIFIRGKEVITKRLS | failed |
| MPPGVAVCFSSLFIRLVCMAFLTSSDKALWHLALPMIFSNITVPLLGLVDTAVIGHLDSPVYLGGVAVGATATSFLFMLLLFLRMSTTGLTAQAYGAKNPQALARTLVQPLLLALGAGALIALLRTPIIDLALHIVGGSEAVLEQARRFLEIRWLSAPASLANLVLLGWLLGVQYARAPVILLVVGNILNIVLDVWLVMGLHMNVQGAALATVIAEYATLLIGLLMVRKILKLRGISGEMLKTAWRGNFRRLLALNRDIMLRSLLLQLCFGAITVLGARLGSDIIAVNAVLMTLLTFTAYALDGFAYAVEAHSGQAYGARDGSQLLDVWRAACRQSGIVALLFSVVYLLAGEHIIALLTSLTQIQQLADRYLIWQVILPVVGVWCYLLDGMFIGATRATEMRNSMAVAAAGFALTLLTLPWLGNHALWLALTVFLALRGLSLAAIWRRHWRNGTWFAAT | failed |
| MVSSLLMSFAPATVRVYATSTKGGSGGPKEEKNPIDFVLGFMTKQDQFYETNPLLKKVDEKEGTTTGGRGTVRGGKNSAPTPVPKKSEGGFGGLGSLFKK | failed |
| MFAYTLTTLTLCCTSILITSYISKRKGTLMEYMVFIMSFSMSIGLSIGFYLGILFKGELLYSTLLAILISGFIGFLIGLRFHLYTALEGMFSGLMASMMGAMITEMLNAQQAHSILFISLLLTITITMSCVIQLLSENFSTFIQQRFLLLLSISVVIIVAVFTTFPDHTPAPSPGHNQHIH | failed |
| MFELWYIHISLAIVSAIFSILIFLEFKSLRKEFHGKLSGVLLLISVLLLFESVVNAVAFSMWSYGHDPVYVYPSMAIAIVSTSVIILFYYYVAKV | failed |
| MASTIYTCKECGSDLNLNPNDLFPPDFYFEAGNKGTLSFAAVDAEKFRFEKEDKIMPFFETLNYWGIQRKRTKIKCTSCNHLIGYIYDDGPPLTGGIGQYGFGPSQVIPRAPRYRFKTKARQDGWQYGGLTAFWN | failed |
| MGVVRPAEQQSRIAARRVALLEKVDYRLAETPAEREAIYRLRYRAYLKEGAIDANSSGIVTDRYDDLPNSWIFGVFYEGELSSSLRITVASPDHHDCPSMDVFPDFLQPWLAEGKVIVDPTRFVADPTSANRLPELPYLTLRLAYVSCEYFNADIGLASVRTEHQAFYRRVMMRS | failed |
| MNIWIRGGTSDANTISKEIKRNFKDSFLILTTTTDFGGKIAENFADFVISEKMNYDNLKKTLVNKKIDVFIDATHPFATHASETGMKISKELNIPYIRYERPVEEFKDVFYVENFEEAAKLALKISKKNIFYMSGIKNLKTVSEIIPIEKLIVRILPTSVPEALKILPSKNIVAMQGVFSENLNKDLITDYNCDVIITKDSGKSGGLYEKVSGAVLAGAKPIIIKRPEINYPLKFEKIDELVNYLKN | failed |
| MVGQVIRKRGAYPEYTVEDVLAVIFLLKEPLGRKQISERLELGEGSVRTLLRKLSHLDIIRSKQRGHFLTLKGKEIRDKLLSMFSEPIGVSVDGYPGIAIVVKNPPEFKSIELRDEAIKFDAKGAMILTVKDNEIVFPEDFRPLKEMYPEVAKKIVDYEDGDAVIITWAETPAKALKSAIHVAYILKKEEITPEILEVVK | not failed |
| MGHHHHHHSHMGKKLLVLDVDYTLFDHRSCAETGVELMRPYLHEFLTSAYEDYDIVIWSATNMKWIEAKMKELGVSTNANYKITFMLDSAAMITVHTPRRGLIDVKPLGVIWGKFSEFYSKKNTIMFDDIGRNFLMNPQNGLKIRPFMKAHLNRDKDKELLKLTQYLKEIAKLDDFLDLNHKY | failed |
| IDSGLSPSVLMASNSGRRSAPPLNLTGLPGTEKLNEKEKELCQVVRLVPGAYLEYKSALLNECHKQGGLRLAQARALIKIDVNKTRKIYDFLIREGYITKA | not failed |
| MTPSLSGLPPIRTALIGYGFAGKTFHAPLIRAVPALCLEHVVSRDPGRVHADLPEARVSADPDEAIEAADIDLVVIASPNATHASLAERALRAGKHVVVDKPFTVTLAEARRLADLARERPGQVLSVFQNRRFDSDFLAVEAALQAGSIGPVRYFESAIERFRPQVRDRWREHDLPGSGLWFDLGPHLLDQALCLFGVPQRVHGHLRRLREGALTDDWFEVLLDYPHCQVALRASMLAANPAPRFNVHGDHGSLLKAGADIQEAQLLQGLHPGSAGWGRDPDLLQHIDGQGLRQSLVTPAGDQSRYYQALAAAIRGQSRNPVSAQQACALMALLELARRSAEEGRSLPVELRDEERQAWN | failed |
| MLLDEIKRMSYDELKRLAEDIRKRITEVVLKNGGHLASNLGTIELTLALYRVFDPREDAIIWDTGHQAYTHKILTGRDDLFHTIRTFGGLSGFVTRRESPLDWFGTGHAGTSIAAGLGFEKAFELLGEKRHVVVVIGDGALTSGMALEALNQLKNLNSKMKIILNDNGMSISPNVGGLAYHLSKLRTSPIYLKGKKVLKKVLEKTEIGFEVEEEMKYLRDSLKGMIQGTNFFESLGLKYFGPFDGHNIELLEKVFKRIRDYDYSSVVHVVTKKGKGFTAAEENPTKYHSASPSGKPKMLSYSELLGHTLSRVAREDKKIVAITAAMADGTGLSIFQKEHPDRFFDLGITEQTCVTFGAALGLHGMKPVVAIYSTFLQRAYDQIIHDVALQNAPVLFAIDRSGVVGEDGPTHHGLFDINYLLPVPNMKIISPSSPEEFVNSLYTVLKHLDGPVAIRYPKESFYGEVESLLENMKEIDLGWKILKRGREAAIIATGTILNEVLKIPLDVTVVNALTVKPLDTAVLKEIARDHDLIITVEEAMKIGGFGSFVAQRLQEMGWQGKIVNLGVEDLFVPHGGRKELLSMLGLDSEGLTKTVLTYIKARSREGKV | failed |
| MTTPSRRRLMRDFKKLQEDPPAGVSGAPTEDNILTWEAIIFGPQETPFEDGTFKLSLEFTEEYPNKPPTVKFISKMFHPNVYADGSICLDILQNRWSPTYDVAAILTSIQSLLDEPNPNSPANSLAAQLYQENRREYEKRVQQIVEQSWLNFGENEGDAVLKDDVEIEEIAAPGANDADDDRMDEGASGSNA | not failed |
| MTLGLKDLYYAVCTEADGAESYGTPKKMAEAMSADLSVKTADGSLYADDTLSESVTEFASGTLKLGIKDLTPEVLAELLGQAVDKNSVVWAGKEDEPPYVAVGFRAKKTGGKYRYVWLLKAKFKVPSEKYETKGESIKFNTPDIEASFTTRKKDNLWKADFVGTEESAAAKTWFTAVPEKAAAMESVLEHHHHHH | not failed |
| MNQQEVAADYLKYFDDMLAKAADLTKDIKDADKKTVVYGNVSKFSQPHVIAEWWIDKAGGISVTSEAMTKANKESLTYTLEDLLKWNPDVMFVASAAEKKEVLADARLGEITAVKNGAIYIVPRIAHVWGNRTTEQPLTIMWAMNKLYPEIVTLEHHHHHH | not failed |
| RISWVGEAVKTDGKKSYYKKVCIDAETLEVGDCVSVIPDDSSKPLYLARVTALWEDSSNGQMFHAHWFCAGTDTVLGATSDPLELFLVDECEDMQLSYIHSKVKVIYKAPSENWAMEGGMDPESLLEGDDGKTYFYQLWYDQDYARFESPPKTQPTEDNKFKFCVSCARLAEMRQKEIPRVLEQLEDLDSRVLYYSATKNGILYRVGDGVYLPPEAFTFNIKLSSPVKRPRKEPVDEDLYPEHYRKYSDYIKGSNLDAPEPYRIGRIKEIFCPKKSNGRPNETDIKIRVNKFYRPENTHKSTPASYHADINLLYWSDEEAVVDFKAVQGRCTVEYGEDLPECVQVYSMGGPNRFYFLEAYNAKSKSFEDPPNHARSP | failed |
